# Reference: the RNAGym collection of RNA variant scans (doi:10.1093/molbev/msab373)
# B1: Azoarcus group I ribozyme (parent)
# chain: GUGCCUUGCGCCGGGAAACCACGCAAGGGAUGGUGUCAAAUUCGGCGAAACCUAAGCGCCCGCCCGGGCGUAUGGCAACGCCGAGCCAAGCUUCGGCGCCUGCGCCGAUGAAGGUGUAGAGACUAGACGGCACCCACCUAAGGCAAACGCUAUGGUGAAGGCAUAGUCCAGGGAGUGGCGAAAGUCACACAAACCGG
# Variants of: B1
# Assay: reverse-splicing fitness (ratio to wild type); higher = more active; in vitro selection; Mg2+ level not given
# Procedure, shortened: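 An in vitro group I ribozyme library with randomized positions was T7-transcribed and gel-purified. In triplicate, 10 pmol RNA in EPPS pH 7.5 was reacted with 50 pmoles of a 30-nt RNA substrate for 1 h at 37 °C across several added MgCl2 levels (1–48 mM), then stopped with EDTA. Products were reverse transcribed from a substrate-complementary primer, PCR-amplified and sequenced (HiSeq 4000). Fitness is a variant's read proportion after selection over that before, normalised to wild type.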
row,Variant,reverse-splicing fitness
1,GUGCCUUGCGCCGGGAAACCACGCAAGGGAUGGUGUCAAAUUCGGCGAAACCUAAGCGCCCGCCCGGGCGUAUGGCAACGCUGAGCCAAGCUUCGGCGCCUGCGCCGAUGGAGGUGUAGAGACUAGACGGCACCCACCUAAGGCUAACGGUAUGGUGAAGGCAUAGUCCAGGGAGGGGCGAAAGUCACACAAACCGG [C82U A111G A145U C150G U176G],0.00442
2,GUGCCUUGCGCCGGGAAACCACGCAAGGGAUGGUGUCAAAUUCGGCGAAACCUAAGCGCCCGCCCGGGCGUAUGGCAACGCUGAGCCAAGCUUCGGCGCCUGCGCCGAUGGAGGUGUAGAGACUAGACGGCACCCACCUAAGGCUAACGGUAUGGUGAAGGCAUAGUCCAGGGAGAGGCGAAAGUCACACAAACCGG [C82U A111G A145U C150G U176A],0.0137
3,GUGCCUUGCGCCGGGAAACCACGCAAGGGAUGGUGUCAAAUUCGGCGAAACCUAAGCGCCCGCCCGGGCGUAUGGCAACGCUGAGCCAAGCUUCGGCGCCUGCGCCGAUGGAGGUGUAGAGACUAGACGGCACCCACCUAAGGCUAACGGUAUGGUGAAGGCAUAGUCCAGGGAGCGGCGAAAGUCACACAAACCGG [C82U A111G A145U C150G U176C],0.0255
4,GUGCCUUGCGCCGGGAAACCACGCAAGGGAUGGUGUCAAAUUCGGCGAAACCUAAGCGCCCGCCCGGGCGUAUGGCAACGCUGAGCCAAGCUUCGGCGCCUGCGCCGAUGGAGGUGUAGAGACUAGACGGCACCCACCUAAGGCUAACGUUAUGGUGAAGGCAUAGUCGAGGGAGGGGCGAAAGUCACACAAACCGG [C82U A111G A145U C150U C169G U176G],0.00489
5,GUGCCUUGCGCCGGGAAACCACGCAAGGGAUGGUGUCAAAUUCGGCGAAACCUAAGCGCCCGCCCGGGCGUAUGGCAACGCUGAGCCAAGCUUCGGCGCCUGCGCCGAUGGAGGUGUAGAGACUAGACGGCACCCACCUAAGGCUAACGUUAUGGUGAAGGCAUAGUCGAGGGAGCGGCGAAAGUCACACAAACCGG [C82U A111G A145U C150U C169G U176C],0.0105
6,GUGCCUUGCGCCGGGAAACCACGCAAGGGAUGGUGUCAAAUUCGGCGAAACCUAAGCGCCCGCCCGGGCGUAUGGCAACGCUGAGCCAAGCUUCGGCGCCUGCGCCGAUGGAGGUGUAGAGACUAGACGGCACCCACCUAAGGCUAACGUUAUGGUGAAGGCAUAGUCGAGGGAGAGGCGAAAGUCACACAAACCGG [C82U A111G A145U C150U C169G U176A],0.0118
7,GUGCCUUGCGCCGGGAAACCACGCAAGGGAUGGUGUCAAAUUCGGCGAAACCUAAGCGCCCGCCCGGGCGUAUGGCAACGCUGAGCCAAGCUUCGGCGCCUGCGCCGAUGGAGGUGUAGAGACUAGACGGCACCCACCUAAGGCUAACGGUAUGGUGAAGGCAUAGUCGAGGGAGGGGCGAAAGUCACACAAACCGG [C82U A111G A145U C150G C169G U176G],0.00515
8,GUGCCUUGCGCCGGGAAACCACGCAAGGGAUGGUGUCAAAUUCGGCGAAACCUAAGCGCCCGCCCGGGCGUAUGGCAACGCUGAGCCAAGCUUCGGCGCCUGCGCCGAUGGAGGUGUAGAGACUAGACGGCACCCACCUAAGGCUAACGGUAUGGUGAAGGCAUAGUCGAGGGAGCGGCGAAAGUCACACAAACCGG [C82U A111G A145U C150G C169G U176C],0.00527
9,GUGCCUUGCGCCGGGAAACCACGCAAGGGAUGGUGUCAAAUUCGGCGAAACCUAAGCGCCCGCCCGGGCGUAUGGCAACGCUGAGCCAAGCUUCGGCGCCUGCGCCGAUGGAGGUGUAGAGACUAGACGGCACCCACCUAAGGCUAACGGUAUGGUGAAGGCAUAGUCGAGGGAGAGGCGAAAGUCACACAAACCGG [C82U A111G A145U C150G C169G U176A],0.00668
10,GUGCCUUGCGCCGGGAAACCACGCAAGGGAUGGUGUCAAAUUCGGCGAAACCUAAGCGCCCGCCCGGGCGUAUGGCAACGCUGAGCCAAGCUUCGGCGCCUGCGCCGAUGGAGGUGUAGAGACUAGACGGCACCCACCUAAGGCUAACGUUAUGGUGAAGGCAUAGUCCAGGGAGAGGCGAAAGUCACACAAACCGG [C82U A111G A145U C150U U176A],0.123
11,GUGCCUUGCGCCGGGAAACCACGCAAGGGAUGGUGUCAAAUUCGGCGAAACCUAAGCGCCCGCCCGGGCGUAUGGCAACGCUGAGCCAAGCUUCGGCGCCUGCGCCGAUGGAGGUGUAGAGACUAGACGGCACCCACCUAAGGCUAACGUUAUGGUGAAGGCAUAGUCCAGGGAGCGGCGAAAGUCACACAAACCGG [C82U A111G A145U C150U U176C],0.172
12,GUGCCUUGCGCCGGGAAACCACGCAAGGGAUGGUGUCAAAUUCGGCGAAACCUAAGCGCCCGCCCGGGCGUAUGGCAACGCUGAGCCAAGCUUCGGCGCCUGCGCCGAUGGAGGUGUAGAGACUAGACGGCACCCACCUAAGGCUAACGGUAUGGUGAAGGCAUAGUCUAGGGAGAGGCGAAAGUCACACAAACCGG [C82U A111G A145U C150G C169U U176A],0.00755
13,GUGCCUUGCGCCGGGAAACCACGCAAGGGAUGGUGUCAAAUUCGGCGAAACCUAAGCGCCCGCCCGGGCGUAUGGCAACGCUGAGCCAAGCUUCGGCGCCUGCGCCGAUGGAGGUGUAGAGACUAGACGGCACCCACCUAAGGCUAACGGUAUGGUGAAGGCAUAGUCUAGGGAGGGGCGAAAGUCACACAAACCGG [C82U A111G A145U C150G C169U U176G],0.00472
14,GUGCCUUGCGCCGGGAAACCACGCAAGGGAUGGUGUCAAAUUCGGCGAAACCUAAGCGCCCGCCCGGGCGUAUGGCAACGCUGAGCCAAGCUUCGGCGCCUGCGCCGAUGGAGGUGUAGAGACUAGACGGCACCCACCUAAGGCUAACGGUAUGGUGAAGGCAUAGUCUAGGGAGCGGCGAAAGUCACACAAACCGG [C82U A111G A145U C150G C169U U176C],0.0112
15,GUGCCUUGCGCCGGGAAACCACGCAAGGGAUGGUGUCAAAUUCGGCGAAACCUAAGCGCCCGCCCGGGCGUAUGGCAACGCUGAGCCAAGCUUCGGCGCCUGCGCCGAUGGAGGUGUAGAGACUAGACGGCACCCACCUAAGGCUAACGUUAUGGUGAAGGCAUAGUCUAGGGAGCGGCGAAAGUCACACAAACCGG [C82U A111G A145U C150U C169U U176C],0.0118
